Test results: patent EP4786492A1
Changes are numbered by the printed parent chain.

Assays:
[1] = target: human delta-like ligand 3 (DLL3) on SHP77 cells (human) (UniProt Q9NYJ7); assay: FACS on SHP77 cells
[2] = target: DLL3 endogenously expressed on NCI-H82 cells (UniProt Q9NYJ7); assay: FACS on NCI-H82 cells; antibody 4 nM
[3] = target: DLL3 endogenously expressed on NCI-H82 cells (UniProt Q9NYJ7); assay: FACS on NCI-H82 cells; antibody 20 nM
[4] = target: DLL3 endogenously expressed on NCI-H82 cells (UniProt Q9NYJ7); assay: FACS on NCI-H82 cells; antibody 0.8 nM
[5] = target: DLL3 endogenously expressed on NCI-H82 cells (UniProt Q9NYJ7); assay: FACS on NCI-H82 cells; antibody 100 nM
[6] = target: DLL3 endogenously expressed on NCI-H82 cells (UniProt Q9NYJ7); assay: FACS on NCI-H82 cells; antibody 0.16 nM
[7] = target: human DLL3 protein expressed on CHO-K1 recombinant cells (human DLL3 extracellular segment fused to EpCAM transmembrane and intracellular regions) (human) (UniProt Q9NYJ7); assay: FACS, CHO-K1 hDLL3 cells, 4 nM antibody
Chain of human DLL3 protein expressed on CHO-K1 recombinant cells (human DLL3 extracellular segment fused to EpCAM transmembrane and intracellular regions) (human) (Q9NYJ7 other isoform, or with tags, fused parts or gaps limits assumed): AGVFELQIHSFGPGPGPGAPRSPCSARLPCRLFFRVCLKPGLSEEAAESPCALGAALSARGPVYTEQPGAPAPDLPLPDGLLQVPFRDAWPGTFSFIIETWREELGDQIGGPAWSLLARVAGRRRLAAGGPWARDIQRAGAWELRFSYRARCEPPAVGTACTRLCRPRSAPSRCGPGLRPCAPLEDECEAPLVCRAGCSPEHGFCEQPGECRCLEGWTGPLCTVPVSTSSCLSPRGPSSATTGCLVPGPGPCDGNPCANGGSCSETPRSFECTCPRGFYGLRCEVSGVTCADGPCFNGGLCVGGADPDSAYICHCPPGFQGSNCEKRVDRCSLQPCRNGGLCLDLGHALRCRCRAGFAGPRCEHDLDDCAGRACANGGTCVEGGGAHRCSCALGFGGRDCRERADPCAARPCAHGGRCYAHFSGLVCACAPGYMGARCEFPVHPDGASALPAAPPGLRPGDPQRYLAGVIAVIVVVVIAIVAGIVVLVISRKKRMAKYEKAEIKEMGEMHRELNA

[8] = target: mouse DLL3 on CHO-K1-mDLL3 cells (mouse) (UniProt O88516); assay: FACS, CHO-K1-mDLL3 cells, 4 nM antibody
Chain of mouse DLL3 on CHO-K1-mDLL3 cells (mouse) (O88516 other isoform, or with tags, fused parts or gaps limits assumed): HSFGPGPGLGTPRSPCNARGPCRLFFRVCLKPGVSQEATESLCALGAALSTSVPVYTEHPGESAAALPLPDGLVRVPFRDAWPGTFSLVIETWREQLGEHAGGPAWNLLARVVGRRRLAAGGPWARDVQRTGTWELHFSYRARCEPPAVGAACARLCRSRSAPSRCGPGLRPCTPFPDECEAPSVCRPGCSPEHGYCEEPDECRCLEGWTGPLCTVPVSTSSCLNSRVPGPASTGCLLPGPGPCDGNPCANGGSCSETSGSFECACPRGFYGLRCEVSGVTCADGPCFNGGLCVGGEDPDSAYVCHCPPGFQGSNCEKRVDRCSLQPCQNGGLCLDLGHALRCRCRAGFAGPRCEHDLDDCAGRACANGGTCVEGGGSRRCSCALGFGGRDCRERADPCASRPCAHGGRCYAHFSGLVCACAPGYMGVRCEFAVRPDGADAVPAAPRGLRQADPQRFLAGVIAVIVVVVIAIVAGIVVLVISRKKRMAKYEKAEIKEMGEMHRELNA

[9] = target: DLL3 endogenously expressed on NCI-H82 cells (UniProt Q9NYJ7); assay: FACS on NCI-H82 cells; antibody 0.032 nM
[10] = target: human DLL3 protein expressed on CHO-K1 recombinant cells (human DLL3 extracellular segment fused to EpCAM transmembrane and intracellular regions) (human) (UniProt Q9NYJ7); assay: FACS, CHO-K1 hDLL3 cells, 20 nM antibody
[11] = target: mouse DLL3 on CHO-K1-mDLL3 cells (mouse) (UniProt O88516); assay: FACS, CHO-K1-mDLL3 cells, 20 nM antibody
[12] = target: DLL3 endogenously expressed on NCI-H82 cells (UniProt Q9NYJ7); assay: FACS on NCI-H82 cells; antibody 0.0064 nM
[13] = target: human DLL3 protein expressed on CHO-K1 recombinant cells (human DLL3 extracellular segment fused to EpCAM transmembrane and intracellular regions) (human) (UniProt Q9NYJ7); assay: FACS, CHO-K1 hDLL3 cells, 0.8 nM antibody
[14] = target: human DLL3 protein expressed on CHO-K1 recombinant cells (human DLL3 extracellular segment fused to EpCAM transmembrane and intracellular regions) (human) (UniProt Q9NYJ7); assay: FACS, CHO-K1 hDLL3 cells, 100 nM antibody
[15] = target: mouse DLL3 on CHO-K1-mDLL3 cells (mouse) (UniProt O88516); assay: FACS, CHO-K1-mDLL3 cells, 0.8 nM antibody
[16] = target: mouse DLL3 on CHO-K1-mDLL3 cells (mouse) (UniProt O88516); assay: FACS, CHO-K1-mDLL3 cells, 100 nM antibody
[17] = target: DLL3 endogenously expressed on NCI-H82 cells (UniProt Q9NYJ7); assay: FACS on NCI-H82 cells; antibody 0.00128 nM
[18] = target: human DLL3 protein expressed on CHO-K1 recombinant cells (human DLL3 extracellular segment fused to EpCAM transmembrane and intracellular regions) (human) (UniProt Q9NYJ7); assay: FACS, CHO-K1 hDLL3 cells, 0.16 nM antibody
[19] = target: mouse DLL3 on CHO-K1-mDLL3 cells (mouse) (UniProt O88516); assay: FACS, CHO-K1-mDLL3 cells, 0.16 nM antibody
[20] = target: human DLL3 protein expressed on CHO-K1 recombinant cells (human DLL3 extracellular segment fused to EpCAM transmembrane and intracellular regions) (human) (UniProt Q9NYJ7); assay: FACS, CHO-K1 hDLL3 cells, 0.032 nM antibody
[21] = target: monkey DLL3 on CHO-K1-cyno DLL3 cells (cynomolgus monkey); assay: FACS, CHO-K1-cyno DLL3 cells, 4 nM antibody
Chain of monkey DLL3 on CHO-K1-cyno DLL3 cells (cynomolgus monkey) (chain, as listed by the source limits assumed): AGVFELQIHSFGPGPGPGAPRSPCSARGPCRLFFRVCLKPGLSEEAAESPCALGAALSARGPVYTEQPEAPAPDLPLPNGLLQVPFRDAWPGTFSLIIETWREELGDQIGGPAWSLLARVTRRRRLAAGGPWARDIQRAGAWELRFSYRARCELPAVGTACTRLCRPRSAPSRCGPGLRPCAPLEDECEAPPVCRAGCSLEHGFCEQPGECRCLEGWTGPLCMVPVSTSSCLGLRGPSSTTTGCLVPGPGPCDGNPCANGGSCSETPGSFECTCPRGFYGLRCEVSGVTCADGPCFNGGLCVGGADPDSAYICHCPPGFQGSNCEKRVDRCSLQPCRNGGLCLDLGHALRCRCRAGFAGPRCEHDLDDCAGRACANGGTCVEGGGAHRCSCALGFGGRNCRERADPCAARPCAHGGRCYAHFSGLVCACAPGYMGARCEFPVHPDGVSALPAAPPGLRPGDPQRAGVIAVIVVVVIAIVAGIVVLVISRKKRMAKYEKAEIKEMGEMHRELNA

[22] = target: mouse DLL3 on CHO-K1-mDLL3 cells (mouse) (UniProt O88516); assay: FACS, CHO-K1-mDLL3 cells, 0.032 nM antibody
[23] = target: human DLL3 protein expressed on CHO-K1 recombinant cells (human DLL3 extracellular segment fused to EpCAM transmembrane and intracellular regions) (human) (UniProt Q9NYJ7); assay: FACS, CHO-K1 hDLL3 cells, 0.0064 nM antibody
[24] = target: monkey DLL3 on CHO-K1-cyno DLL3 cells (cynomolgus monkey); assay: FACS, CHO-K1-cyno DLL3 cells, 20 nM antibody
[25] = target: mouse DLL3 on CHO-K1-mDLL3 cells (mouse) (UniProt O88516); assay: FACS, CHO-K1-mDLL3 cells, 0.0064 nM antibody
[26] = target: human DLL3 protein expressed on CHO-K1 recombinant cells (human DLL3 extracellular segment fused to EpCAM transmembrane and intracellular regions) (human) (UniProt Q9NYJ7); assay: FACS, CHO-K1 hDLL3 cells, 0.00128 nM antibody
[27] = target: monkey DLL3 on CHO-K1-cyno DLL3 cells (cynomolgus monkey); assay: FACS, CHO-K1-cyno DLL3 cells, 0.8 nM antibody
[28] = target: monkey DLL3 on CHO-K1-cyno DLL3 cells (cynomolgus monkey); assay: FACS, CHO-K1-cyno DLL3 cells, 100 nM antibody
[29] = target: mouse DLL3 on CHO-K1-mDLL3 cells (mouse) (UniProt O88516); assay: FACS, CHO-K1-mDLL3 cells, 0.00128 nM antibody
[30] = target: monkey DLL3 on CHO-K1-cyno DLL3 cells (cynomolgus monkey); assay: FACS, CHO-K1-cyno DLL3 cells, 0.16 nM antibody
[31] = target: monkey DLL3 on CHO-K1-cyno DLL3 cells (cynomolgus monkey); assay: FACS, CHO-K1-cyno DLL3 cells, 0.032 nM antibody
[32] = target: monkey DLL3 on CHO-K1-cyno DLL3 cells (cynomolgus monkey); assay: FACS, CHO-K1-cyno DLL3 cells, 0.0064 nM antibody
[33] = target: monkey DLL3 on CHO-K1-cyno DLL3 cells (cynomolgus monkey); assay: FACS, CHO-K1-cyno DLL3 cells, 0.00128 nM antibody
[34] = target: human DLL1 protein (Acro, Cat. No. DL1-H52H8) (human) (UniProt O00548); assay: ELISA, coated hDLL1; maximum over 0.1, 1, 10, 100 nM antibody
Chain of human DLL1 protein (Acro, Cat. No. DL1-H52H8) (human) (O00548 18-540 limits assumed): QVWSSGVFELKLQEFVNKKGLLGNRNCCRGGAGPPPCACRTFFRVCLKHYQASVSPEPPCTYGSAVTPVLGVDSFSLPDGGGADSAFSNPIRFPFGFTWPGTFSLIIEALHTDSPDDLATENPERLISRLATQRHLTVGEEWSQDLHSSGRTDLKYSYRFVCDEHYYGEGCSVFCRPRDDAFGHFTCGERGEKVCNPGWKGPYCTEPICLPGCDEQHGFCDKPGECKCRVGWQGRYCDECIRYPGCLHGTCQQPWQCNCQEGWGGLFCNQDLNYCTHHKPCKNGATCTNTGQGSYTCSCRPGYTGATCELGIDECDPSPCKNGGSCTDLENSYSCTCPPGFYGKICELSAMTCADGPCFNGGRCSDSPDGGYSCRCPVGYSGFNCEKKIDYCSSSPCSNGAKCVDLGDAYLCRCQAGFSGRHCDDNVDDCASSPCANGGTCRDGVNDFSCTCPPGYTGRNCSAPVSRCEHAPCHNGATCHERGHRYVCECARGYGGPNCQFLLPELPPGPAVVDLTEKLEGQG

[35] = target: human DLL4 protein (Acro, Cat. No. DL4-H5227) (human) (UniProt Q9NR61); assay: ELISA, coated hDLL4; maximum over 0.1, 1, 10, 100 nM antibody
Chain of human DLL4 protein (Acro, Cat. No. DL4-H5227) (human) (Q9NR61 27-524 limits assumed): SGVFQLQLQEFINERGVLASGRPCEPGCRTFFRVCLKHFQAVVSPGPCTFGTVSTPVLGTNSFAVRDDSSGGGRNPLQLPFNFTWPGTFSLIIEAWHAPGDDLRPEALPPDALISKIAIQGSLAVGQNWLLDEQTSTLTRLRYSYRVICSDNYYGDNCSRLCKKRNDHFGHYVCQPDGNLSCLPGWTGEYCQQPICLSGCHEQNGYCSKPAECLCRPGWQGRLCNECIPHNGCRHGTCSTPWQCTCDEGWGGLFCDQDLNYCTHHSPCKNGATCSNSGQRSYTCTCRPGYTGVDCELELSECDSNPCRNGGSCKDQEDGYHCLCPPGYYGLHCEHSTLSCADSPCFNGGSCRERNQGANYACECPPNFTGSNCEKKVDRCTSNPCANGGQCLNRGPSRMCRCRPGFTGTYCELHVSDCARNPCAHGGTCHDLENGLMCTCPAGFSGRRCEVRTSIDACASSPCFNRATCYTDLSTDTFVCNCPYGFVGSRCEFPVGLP

[36] = target: human DLL3 protein (extracellular segment, His tag) (human) (UniProt Q9NYJ7); assay: SPR (Biacore 8K), antibody captured on Protein A chip, DLL3 antigen in solution, 1:1 Langmuir fit
Chain of human DLL3 protein (extracellular segment, His tag) (human) (Q9NYJ7 27-492): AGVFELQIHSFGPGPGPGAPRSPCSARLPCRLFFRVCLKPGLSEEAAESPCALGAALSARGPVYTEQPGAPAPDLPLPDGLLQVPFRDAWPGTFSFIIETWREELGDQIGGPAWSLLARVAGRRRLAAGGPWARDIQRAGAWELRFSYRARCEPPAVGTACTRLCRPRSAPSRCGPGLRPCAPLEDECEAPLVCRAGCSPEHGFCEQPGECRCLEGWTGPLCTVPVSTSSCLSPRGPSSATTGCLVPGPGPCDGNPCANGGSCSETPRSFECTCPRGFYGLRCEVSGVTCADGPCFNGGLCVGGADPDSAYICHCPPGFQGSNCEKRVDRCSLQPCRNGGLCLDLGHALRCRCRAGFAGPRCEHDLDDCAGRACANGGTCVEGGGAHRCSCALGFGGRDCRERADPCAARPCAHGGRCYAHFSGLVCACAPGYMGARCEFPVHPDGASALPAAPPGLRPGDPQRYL

Chain of human delta-like ligand 3 (DLL3) on SHP77 cells (human) (Q9NYJ7 27-618, stated change not applied): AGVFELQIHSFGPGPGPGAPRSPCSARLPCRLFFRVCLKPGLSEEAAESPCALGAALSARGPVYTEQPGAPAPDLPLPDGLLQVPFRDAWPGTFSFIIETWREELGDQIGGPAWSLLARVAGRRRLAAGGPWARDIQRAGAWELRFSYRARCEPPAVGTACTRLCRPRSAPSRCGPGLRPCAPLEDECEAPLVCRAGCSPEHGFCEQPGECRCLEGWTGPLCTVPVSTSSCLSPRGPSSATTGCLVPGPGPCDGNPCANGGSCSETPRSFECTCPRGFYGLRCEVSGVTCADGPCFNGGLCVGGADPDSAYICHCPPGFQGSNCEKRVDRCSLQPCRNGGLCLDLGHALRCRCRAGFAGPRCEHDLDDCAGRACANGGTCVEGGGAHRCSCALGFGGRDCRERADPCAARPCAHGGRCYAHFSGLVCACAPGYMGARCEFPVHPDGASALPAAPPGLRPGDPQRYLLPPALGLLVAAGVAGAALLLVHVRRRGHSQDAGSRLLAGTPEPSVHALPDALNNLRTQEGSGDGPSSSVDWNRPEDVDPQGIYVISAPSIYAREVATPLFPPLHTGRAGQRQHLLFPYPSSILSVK
Chain of DLL3 endogenously expressed on NCI-H82 cells (Q9NYJ7 27-618): as the sequence (Q9NYJ7 27-618, stated change not applied) above

B1: Hab014VL1VH2-hFc (scFv, part only; not given: VL-VH linker and human IgG1 Fc, V domains shown, not shown: another chain or arm of the molecule; a dimerising Fc or GST; small tags and cut ends)
VL: DIQMTQSPSSLSASVGDRVTITCKASEDIYNRLAWYQQKPGKVPKLLISGATSLETGVPSRFSGSGSGTDFTLTISSLQPEDVATYYCQQYWSLPWTFGGGTKVEIK
VH: EVQLVQSGAEVKKPGASVKVSCKASGYTFTDYYMNWVRQAPGQRLEWMGDINPNHGDTGYNQKFTGRVTLTVDKSASTAYMELSSLRSEDTAVYYCARNFFYYGTTYGWYFDVWGQGTTVTVSS
An MFI at 0.00128 nM [1] of 90 MFI, an MFI at 0.0064 nM [1] of 94 MFI and an MFI at 0.032 nM [1] of 116 MFI were found for B1 in this work. It also gave an MFI at 0.16 nM [1] of 192 MFI, an MFI at 0.8 nM [1] of 403 MFI and an MFI at 4 nM [1] of 628 MFI. For the same binder, the MFI at 20 nM [1] was 818 MFI, the MFI at 100 nM [1] was 1120 MFI and the MFI [2] was 625. It also gave an MFI [3] of 784, an MFI [4] of 580 and an MFI [5] of 1100. The MFI [6] was 419, the MFI [7] was 14000 MFI and the MFI [8] was 311 MFI. For the same binder, the MFI [9] was 204, the MFI [10] was 15100 MFI and the MFI [11] was 355 MFI. It also gave an MFI [12] of 130, an MFI [13] of 9190 MFI and an MFI [14] of 16000 MFI. For the same binder, the MFI [15] was 268 MFI, the MFI [16] was 389 MFI and the MFI [17] was 110. The MFI [18] was 2130 MFI, the MFI [19] was 208 MFI and the MFI [20] was 698 MFI. It also gave an MFI [21] of 25900 MFI, an MFI [22] of 148 MFI and an MFI [23] of 306 MFI. The MFI [24] was 31500 MFI, the MFI [25] was 122 MFI and the MFI [26] was 221 MFI. For the same binder, the MFI [27] was 9960 MFI, the MFI [28] was 32800 MFI and the MFI [29] was 109 MFI. For the same binder, the MFI [30] was 2190 MFI, the MFI [31] was 692 MFI and the MFI [32] was 306 MFI. For the same binder, the MFI [33] was 215 MFI, the Emax of OD450 nm binding value [34] was 0.1 OD450 nm and the Emax of OD450 nm binding value [35] was 0.13 OD450 nm. It also gave a Kd [36] of 0.0772 nM, a koff [36] of 7.84e-05 s⁻¹ and a kon [36] of 1.02e+06 M⁻¹ s⁻¹.

B2: Hab014VL2VH1-hFc (scFv, part only; not given: scFv linker and human IgG1 Fc, V domains shown, not shown: another chain or arm of the molecule; a dimerising Fc or GST; small tags and cut ends)
VL: B1 VL with T69K
VH: B1 VH with L70I
An MFI at 0.00128 nM [1] of 91 MFI, an MFI at 0.0064 nM [1] of 99 MFI and an MFI at 0.032 nM [1] of 120 MFI were found for B2 in this work. For the same binder, the MFI at 0.16 nM [1] was 207 MFI, the MFI at 0.8 nM [1] was 407 MFI and the MFI at 4 nM [1] was 610 MFI. The MFI at 20 nM [1] was 796 MFI, the MFI at 100 nM [1] was 1110 MFI and the MFI [2] was 624. For the same binder, the MFI [3] was 754, the MFI [4] was 554 and the MFI [5] was 1110. The MFI [6] was 428, the MFI [7] was 15400 MFI and the MFI [8] was 308 MFI. For the same binder, the MFI [9] was 217, the MFI [10] was 16100 MFI and the MFI [11] was 355 MFI. The MFI [12] was 142, the MFI [13] was 8420 MFI and the MFI [14] was 16400 MFI. For the same binder, the MFI [15] was 272 MFI, the MFI [16] was 374 MFI and the MFI [17] was 113. It also gave an MFI [18] of 2380 MFI, an MFI [19] of 204 MFI and an MFI [20] of 705 MFI. For the same binder, the MFI [21] was 25300 MFI, the MFI [22] was 152 MFI and the MFI [23] was 322 MFI. The MFI [24] was 33000 MFI, the MFI [25] was 118 MFI and the MFI [26] was 231 MFI. It also gave an MFI [27] of 10100 MFI, an MFI [28] of 33000 MFI and an MFI [29] of 109 MFI. The MFI [30] was 1670 MFI, the MFI [31] was 661 MFI and the MFI [32] was 287 MFI. It also gave an MFI [33] of 200 MFI, an Emax of OD450 nm binding value [34] of 0.17 OD450 nm and an Emax of OD450 nm binding value [35] of 0.25 OD450 nm. The Kd [36] was 0.111 nM, the koff [36] was 0.000135 s⁻¹ and the kon [36] was 1.21e+06 M⁻¹ s⁻¹.
